Source: publication PMC10328401 (Science Advances, 2023)

Biological target: T1, RsgI2-PD C-terminal fragment after autocleavage at Asn97-Pro98 (Clostridium thermocellum DSM 1313, UniProt A3DC27 98-259)
T1 sequence (looked up): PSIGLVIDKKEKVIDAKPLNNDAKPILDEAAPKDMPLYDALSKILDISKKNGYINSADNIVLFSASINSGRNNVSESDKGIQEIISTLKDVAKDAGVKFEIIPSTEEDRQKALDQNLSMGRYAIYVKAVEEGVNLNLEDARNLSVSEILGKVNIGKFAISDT
Experiment: crystal structure

binding result: binds
B1: RsgI2-PD N-terminal fragment after autocleavage at Asn97-Pro98 (β1 strand chain, twelve residues) (peptide, UniProt A3DC27 86-97, looked up)
chain: SQEYAYIDVDIN
